{"source": "patent US20250066499A1", "about": "(SUNSHINE GUOJIAN PHARMACEUTICAL SHANGHAI, published 2025)", "binders": {"B1": {"name": "48A11-HuV33 (antibody, human IgG4, V domains shown)", "VH": "QVQLVQSGAEVKKPGASVKVSCKASGYTFTSYWMHWVRQAPGQGLEWIGEINPSIGRTNYNEKFKSRVTLTRDTSTSTAYMELSSLRSEDTAVYYCARRVYGTMDYWGQGTLVTVSS", "VL": "DIQMTQSPSSLSASVGDRVTITCKASQDINSYLSWFQQKPGKSPKLLIYRANIWVDGVPSRFSGSGSGQDYTFTISSLQPEDIATYYCLQYDELYTFGQGTKVEIK", "notes": "Humanized"}}, "key": {"[1]": {"target": "T1, human CD73-His protein (human, UniProt P21589 27-549)", "T1 construct": "Expressed in HEK-293F with a signal peptide that is not specified; In the ELISAs it was biotinylated with EZ-Link NHS-Biotin (CD73-biotin) and captured on streptavidin; in SPR and the enzyme assay it was used as CD73-His; also called CD73-his antigen; CD73-biotin", "T1 sequence": "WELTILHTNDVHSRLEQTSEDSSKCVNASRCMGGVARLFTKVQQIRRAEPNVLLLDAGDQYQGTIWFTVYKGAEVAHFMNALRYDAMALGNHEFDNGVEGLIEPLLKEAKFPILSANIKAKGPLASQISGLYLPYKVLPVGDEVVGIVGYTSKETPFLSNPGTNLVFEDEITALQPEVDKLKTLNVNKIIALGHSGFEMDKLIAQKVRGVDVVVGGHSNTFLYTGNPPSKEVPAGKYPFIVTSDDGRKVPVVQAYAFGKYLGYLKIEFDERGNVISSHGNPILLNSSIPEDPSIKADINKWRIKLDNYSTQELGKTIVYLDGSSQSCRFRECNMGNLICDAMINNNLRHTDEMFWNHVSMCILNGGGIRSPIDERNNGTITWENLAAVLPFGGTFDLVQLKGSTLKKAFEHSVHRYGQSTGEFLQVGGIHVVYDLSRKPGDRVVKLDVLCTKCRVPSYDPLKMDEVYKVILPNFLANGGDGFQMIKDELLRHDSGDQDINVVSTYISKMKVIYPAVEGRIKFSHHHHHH", "assay": "ELISA as in Example 3, antigen CD73-his, antibody titrated, absorbance 450 nm"}, "[2]": {"target": "T2, CD73-ND-V186A (human, UniProt P21589 27-317)", "T2 construct": "Alanine mutant of CD73-ND", "T2 sequence": "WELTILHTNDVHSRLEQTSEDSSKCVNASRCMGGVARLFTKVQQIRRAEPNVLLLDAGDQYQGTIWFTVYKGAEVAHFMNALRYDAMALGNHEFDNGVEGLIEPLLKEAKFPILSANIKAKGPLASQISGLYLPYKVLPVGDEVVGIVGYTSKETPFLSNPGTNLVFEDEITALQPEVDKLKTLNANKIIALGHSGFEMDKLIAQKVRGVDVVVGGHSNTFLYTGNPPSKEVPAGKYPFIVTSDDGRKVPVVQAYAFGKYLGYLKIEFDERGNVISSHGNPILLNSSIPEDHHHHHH", "assay": "ELISA; decline multiple of EC50 against CD73-ND", "description": "(§1) The ELISA plates were coated with SA protein diluted to 1.5 μg/mL in coating buffer (50 mM carbonate coating buffer, pH 9.6) and incubated overnight at 4° C. The supernatant was discarded, and the plates were washed three times with PBST. Then, 5% skimmed milk powder prepared with PBS was added for blocking and the plates were incubated for 2 h at 37° C. After washing the plates once with PBST, CD73-biotin protein (prepared by biotinylating CD73-His protein according to the EZ-Link NHS-Biotin Reagent instructions) was diluted to 0.5 μg/mL and added at 100 μL/well for incubation at room temperature for 1 h. The plates were washed three times with PBST, and the prepared murine-derived monoclonal antibodies against human CD73 were serially diluted with 1% BSA buffer prepared with PBST and added to the ELISA plates at 100 μl/well. The plates were incubated at 37° C. for 1 h. After washing the plates three times with PBST, HRP-labeled goat anti-mouse IgG secondary antibody was added and the plates were incubated for 30 min at 37° C. After washing the plates three times with PBST, the residual droplets were patted dry on absorbent paper as much as possible. Then, 100 μl of TMB color developing solution was added to each well, and the plates were incubated in the dark at room temperature for 5 min for color development. Subsequently, 50 μl of 2M H₂SO₄ stop solution was added to each well to terminate the substrate reaction. The OD values were read at 450 nm using a multimode microplate reader to analyze the binding ability of the tested antibodies to the target antigen human CD73-His.\n(§2) Referring to the experimental method in Example 3, the affinity of 48A11-HuV33 for various mutant proteins of CD73-ND was determined. The SA protein was diluted to 1 μg/mL for coating the ELISA plates, and the biotinylated CD73 protein (CD73-biotin) was used at a concentration of 0.1 μg/mL."}, "[3]": {"target": "T3, CD73-ND-N187A (human, UniProt P21589 27-317)", "T3 construct": "Alanine mutant of CD73-ND", "T3 sequence": "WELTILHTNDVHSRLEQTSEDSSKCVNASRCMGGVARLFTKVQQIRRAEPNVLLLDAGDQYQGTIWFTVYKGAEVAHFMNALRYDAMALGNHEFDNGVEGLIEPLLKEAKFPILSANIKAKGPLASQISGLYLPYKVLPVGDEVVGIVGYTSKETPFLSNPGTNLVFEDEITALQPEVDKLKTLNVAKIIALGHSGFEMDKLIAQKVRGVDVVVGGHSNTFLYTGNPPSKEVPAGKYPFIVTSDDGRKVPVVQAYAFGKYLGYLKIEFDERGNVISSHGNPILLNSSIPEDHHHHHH", "assay": "ELISA; decline multiple of EC50 against CD73-ND", "description": "as §1, §2"}, "[4]": {"target": "T4, CD73-ND-his (human, UniProt P21589 27-317)", "T4 construct": "Biotinylated and captured on streptavidin in the ELISA", "T4 sequence": "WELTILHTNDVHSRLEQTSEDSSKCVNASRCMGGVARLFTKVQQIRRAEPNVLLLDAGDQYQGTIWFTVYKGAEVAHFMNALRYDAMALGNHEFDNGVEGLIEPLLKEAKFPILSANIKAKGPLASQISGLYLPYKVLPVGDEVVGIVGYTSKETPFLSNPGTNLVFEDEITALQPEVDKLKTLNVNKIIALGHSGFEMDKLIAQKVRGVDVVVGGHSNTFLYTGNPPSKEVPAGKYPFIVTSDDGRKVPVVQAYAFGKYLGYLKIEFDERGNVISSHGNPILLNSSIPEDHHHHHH", "assay": "ELISA; decline multiple of EC50 against CD73-ND", "description": "as §1, §2"}, "[5]": {"target": "T5, CD73-ND-E143A (human, UniProt P21589 27-317)", "T5 construct": "Alanine mutant of CD73-ND", "T5 sequence": "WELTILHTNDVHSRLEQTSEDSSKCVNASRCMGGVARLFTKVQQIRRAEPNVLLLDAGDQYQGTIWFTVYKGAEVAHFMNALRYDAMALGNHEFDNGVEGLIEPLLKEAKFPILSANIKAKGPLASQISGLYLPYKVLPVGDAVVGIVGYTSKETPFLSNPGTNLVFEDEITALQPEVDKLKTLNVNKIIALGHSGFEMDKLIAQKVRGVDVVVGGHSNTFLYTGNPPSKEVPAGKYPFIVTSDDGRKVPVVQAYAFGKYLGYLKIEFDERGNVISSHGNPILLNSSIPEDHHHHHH", "assay": "ELISA, high plateau value (OD 450 nm)", "description": "as §1, §2"}}, "data": [{"binder": "B1", "values": [{"measurement": "EC50 (read off the curve)", "setting": "[1]", "result": "~0.04", "unit": "nM"}, {"measurement": "Ratio(EC50)", "setting": "[2]", "result": 1.4, "unit": "fold"}, {"measurement": "Ratio(EC50)", "setting": "[3]", "result": 0.9, "unit": "fold"}, {"measurement": "Ratio(EC50)", "setting": "[4]", "result": 0.8, "unit": "fold"}, {"measurement": "Top", "setting": "[5]", "result": 1.77}]}]}
